Experimental data published in US20230071422A1 (BEIJING WISDOMAB BIOTECHNOLOGY, published 2023).

What was measured:
[1] = biological target: T1, CD123 on the surface of CD123-positive cells (KG-1a, MV-4-11) (human, UniProt P26951 19-378); experiment: flow cytometry on MV-4-11 cells, titration from 100 nM, goat anti-human IgG-FITC
T1 construct: whole, on cells; Endogenous CD123 on KG-1a (human acute myeloid leukemia) and MV-4-11 (human acute monocytic leukemia) cells; also called cell surface CD123 antigen; CD123 on the surface of MV-4-11 cells
Experimental: MV-4-11 cells at the logarithmic phase of growth were used and resuspended to 2×10⁶ […] with PBS buffer containing 1% BSA after centrifugation. MV-4-11 cells were plated in a 96-well V-bottom plate at 100 μL/well, and the supernatant was removed after centrifugation. […] The antibodies were added to the wells containing cells and incubated at 4° C. for 1 hour. Then, the plate was washed three times with 200 μL PBS buffer. The goat anti-human IgG-FITC secondary antibody (ZF-0308, ZSGB-BIO) was added to the wells (100 μL/well), and incubated at 4° C. for 30 minutes in the dark. Then, the cells were washed three times with 200 μL of PBS buffer, and resuspended in 100 μL of PBS buffer to detect FITC channel by flow cytometer (ACEA, Novocyte).

[2] = biological target: T2, extracellular region of human CD3E with C-terminal His tag (hCD3E-his) (human (Homo sapiens), UniProt P07766 23-126); experiment: SPR, Biacore X100; antibody captured by anti-human IgG (Fc), hCD3E-his as analyte, 1:1 model
T2 construct: Recombinant, expressed in HEK293 cells
Experimental: (§1) The chip surface was regenerated by injecting 3M MgCl₂ solution at 10 μL/min for 30 s. Association rates (Kₒₙ) and dissociation rates (Koff) were calculated from association and dissociation sensorgrams fitted by a 1:1 binding model using Biacore X100 evaluation software version 2.0.1. The dissociation equilibrium constant (KD) was calculated as the ratio Koff/Kₒₙ.

[3] = biological target: T3, extracellular region of cynomolgus monkey CD3E with C-terminal His tag (mfCD3E-his) (cynomolgus monkey (Macaca fascicularis), UniProt Q95LI5 22-117); experiment: SPR, Biacore X100; antibody captured by anti-human IgG (Fc), mfCD3E-his as analyte, 1:1 model
T3 construct: Recombinant, expressed in HEK293 cells
T3 sequence: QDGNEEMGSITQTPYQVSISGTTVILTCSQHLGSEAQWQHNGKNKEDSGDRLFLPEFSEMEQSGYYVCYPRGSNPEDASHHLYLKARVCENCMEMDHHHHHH
Experimental: as §1

[4] = biological target: T4, extracellular region of human CD123 subtype 1 with C-terminal His tag (hCD123-SP1-his) (human (Homo sapiens), UniProt P26951 19-305); experiment: SPR, Biacore X100; antibody captured by anti-human IgG (Fc), hCD123-SP1-his as analyte, 1:1 model
T4 construct: Recombinant, expressed in HEK293 cells
T4 sequence: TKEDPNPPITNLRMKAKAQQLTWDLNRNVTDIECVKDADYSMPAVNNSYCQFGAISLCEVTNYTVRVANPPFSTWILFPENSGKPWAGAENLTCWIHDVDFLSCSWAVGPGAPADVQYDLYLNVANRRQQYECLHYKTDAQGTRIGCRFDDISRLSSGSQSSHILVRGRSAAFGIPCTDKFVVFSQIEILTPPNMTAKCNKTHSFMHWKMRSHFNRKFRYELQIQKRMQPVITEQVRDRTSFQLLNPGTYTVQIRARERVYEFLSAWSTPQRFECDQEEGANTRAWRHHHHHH
Experimental: The affinity of anti-CD123 antibodies was determined by surface plasmon resonance using Biacore X100. Related reagents and consumables such as Amino Conjugation Kit (BR-1000-50), Human Antibody Capture Kit (BR-1008-39), CM5 Chip (BR100012) and 10×HBS-EP (BR100669) buffer with pH 7.4 were all purchased from GE healthcare. According to the instructions in the kits, 1-Ethyl-3-(3-dimethylaminopropyl) carbodiimide hydrochloride (EDC) and N-Hydroxysuccinimide (NHS) was used to activate the surface of the carboxylated CM5 chip, and the anti-human IgG (Fc) antibody (capture antibody) was diluted to 25 μg/mL with 10 mM, pH5.0 sodium acetate, followed by an injection with a flow rate at 10 μL/min to achieve a coupling volume of approximately 10,000 response units (RU). Following the injection of the capture antibody, 1 M ethanolamine was injected to block unreacted groups. […] The chip surface was regenerated by injecting 3M MgCl₂ solution at 10 μL/min for 30 s. Association rates (Kₒₙ) and dissociation rates (Koff) were calculated from association and dissociation sensorgrams fitted by a 1:1 binding model using Biacore X100 evaluation software version 2.0.1. The dissociation equilibrium constant (KD) was calculated as the ratio Koff/Kₒₙ.

T2 sequence (P07766 other isoform, or with tags, fused parts or gaps limits assumed): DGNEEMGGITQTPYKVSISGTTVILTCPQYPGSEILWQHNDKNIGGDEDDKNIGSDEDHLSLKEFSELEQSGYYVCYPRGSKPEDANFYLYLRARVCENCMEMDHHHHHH

B1: bispecific antibody CD3E×CD123 (bispecific antibody, human IgG1, kappa)
heavy 1: EVQLVESGGGLVQPGGSLRLSCAASGFTFSNAWMHWVRQAPGKGLEWVGQIKDKSNNYATYYADAVKGRFTISRDDSKNSLYLQMNSLKTEDTAVYYCRYVHYGVRFFYTMDVWGQGTTVTVSSASTKGPSVFPLAPSSKSTSGGTAALGCLVKDYFPEPVTVSWNSGALTSGVHTFPAVLQSSGLYSLSSVVTVPSSSLGTQTYICNVNHKPSNTKVDKRVEPKSCDKTHTCPPCPAPEFEGGPSVFLFPPKPKDTLMISRTPEVTCVVVDVSHEDPEVKFNWYVDGVEVHNAKTKPREEQYNSTYRVVSVLTVLHQDWLNGKEYKCKVSNKALPASIEKTISKAKGQPREPQVYTLPPCREEMTKNQVSLWCLVKGFYPSDIAVEWESNGQPENNYKTTPPVLDSDGSFFLYSKLTVDKSRWQQGNVFSCSVMHEALHNHYTQKSLSLSPGK
heavy 2: QVQLVQSGAEVKKPGASVKVSCKASGYTFTSYDVSWVRQAPGQRLEWMGWVYPVDGSTKFNEKFKGRVTLTADRSSSTAYMELSSLRSEDTAVYYCARLTYGDFGDAMDYWGQGTLVTVSSASTKGPSVFPLAPSSKSTSGGTAALGCLVKDYFPEPVTVSWNSGALTSGVHTFPAVLQSSGLYSLSSVVTVPSSSLGTQTYICNVNHKPSNTKVDKRVEPKSCDKTHTCPPCPAPEFEGGPSVFLFPPKPKDTLMISRTPEVTCVVVDVSHEDPEVKFNWYVDGVEVHNAKTKPREEQYNSTYRVVSVLTVLHQDWLNGKEYKCKVSNKALPASIEKTISKAKGQPREPQVCTLPPSREEMTKNQVSLSCAVKGFYPSDIAVEWESNGQPENNYKTTPPVLDSDGSFFLVSKLTVDKSRWQQGNVFSCSVMHEALHNHYTQKSLSLSPGK
light: DIVMTQTPLSLSVTPGQPASISCKSSQSLVHSNDNTYLTWYLQKPGQSPQLLIYKVSNRFSGVPDRFSGSGSGTDFTLKISRVEAEDVGVYYCGQGTQYPFTFGQGTKLEIKRTVAAPSVFIFPPSDEQLKSGTASVVCLLNNFYPREAKVQWKVDNALQSGNSQESVTEQDSKDSTYSLSSTLTLSKADYEKHKVYACEVTHQGLSSPVTKSFNRGEC
notes: also called CD3×CD123 BsAb; CD3E×CD123 BsAb
Q: How did the Kd [1] turn out when B1 was run?
A: Its Kd is 7.08 nM.

Q: And the Kd [2]?
A: Its Kd is 14.1 nM.

Q: And the koff [2]?
A: The koff was 0.000797 s⁻¹.

Q: And the kon [2]?
A: The kon was 56500 M⁻¹ s⁻¹.

Q: And the Kd [3]?
A: Its Kd is 11.5 nM.

Q: What about the koff [3] of the same binder?
A: The koff was 0.00157 s⁻¹.

Q: And the kon [3]?
A: The kon was 137000 M⁻¹ s⁻¹.

Q: And the Kd [4]?
A: The Kd was 0.178 nM.

Q: What about the koff [4] of the same binder?
A: Its koff is 4.02e-05 s⁻¹.

Q: What about the kon [4] of the same binder?
A: Its kon is 225000 M⁻¹ s⁻¹.
